Laboratory results: the RNAGym collection of RNA variant scans (doi:10.7554/elife.90254)

B1: LINE1-mini (parent)
chain: GGCAGAGCUCAACACAGCGUGGCAAAGUGGCUGUGGCUAGACUGCC

Variants of: B1
Assay: self-cleavage, relative activity (ratio to wild type); higher = more cleavage; in vitro, sequencing; the parent is a self-cleaving ribozyme

Row | Variant | self-cleavage
1 | C15U C18A | 0.09
2 | G21A G33A | 0.08
3 | G30U A39G | 0.09
4 | A16C A39G | 0.04
5 | A25G A39C | 0.22
6 | A12C G21U | 0.03
7 | G2A G36C | 0.28
8 | C8U A16C | 0.13
9 | A6C C45U | 0.7
10 | G21C G40A | 0.04
11 | G1A C42G | 0.06
12 | A12G U43C | 0.03
13 | G17A A39C | 0.07
14 | A25G U28A | 1.01
15 | G7U A12U | 0.07
16 | G1A G7U | 0.3
17 | C3G U34G | 0.08
18 | G2C G44A | 0.17
19 | C13A C23U | 0.16
20 | U20C G35A | 0.1
21 | C10U G36C | 0.05
22 | G19A G44U | 0.51
23 | G22C G35U | 0.15
24 | C10A G17C | 0.1

Row | Variant | self-cleavage
25 | G17A C18U | 0.14
26 | G1A C23G | 0.53
27 | G19U | 0.77
28 | U38C C42G | 0.15
29 | A14C U32G | 0.07
30 | A26U U43A | 0.08
31 | A25U C37U | 0.03
32 | C37A A41C | 0.03
33 | A6U U9C | 0.08
34 | A41U C45A | 0.19
35 | U28C G29A | 0.37
36 | A14G U32G | 0.04
37 | A12U G33A | 0.05
38 | G5U G19A | 0.33
39 | C31U U34A | 0.06
40 | C23A U38A | 0.28
41 | G27A C45G | 0.51
42 | G21A A39G | 0.14
43 | G7A U20A | 0.12
44 | G19U G33U | 0.13
45 | C13G A26U | 0.19
46 | C8A G30C | 0.26
47 | C13A U28G | 0.09
48 | C10G G36U | 0.02

Row | Variant | self-cleavage
49 | A14U G40U | 0.11
50 | C31A A39C | 0.05
51 | A14C G19A | 0.1
52 | U20G U34G | 0.14
53 | C23G G27C | 0.27
54 | A16G C42G | 0.03
55 | G19U G36A | 0.1
56 | G5U G40A | 0.06
57 | U9C U28C | 0.05
58 | G2U C45U | 0.11
59 | U9C G29U | 0.03
60 | C15G C45U | 0.05
61 | G7A G22C | 0.13
62 | C31U G35C | 0.04
63 | A12U C42G | 0.04
64 | G1A C45A | 0.82
65 | U9C A26C | 0.03
66 | C23A G44C | 0.51
67 | C15A A24U | 0.12
68 | G7A G21U | 0.24
69 | G5A C45A | 0.22
70 | C23G G36U | 0.07
71 | G30U A41C | 0.06
72 | G2C G5C | 0.02

Row | Variant | self-cleavage
73 | G19A U32A | 0.15
74 | C18G U34G | 0.02
75 | G22U G44C | 0.34
76 | G27A G33C | 0.08
77 | C31A U34A | 0.05
78 | U9A G44C | 0.07
79 | C10U C37G | 0.02
80 | C23G A25G | 1
81 | A16C A41G | 0.02
82 | A6G G36U | 0.04
83 | A16G C42A | 0.07
84 | A14G G30A | 0.28
85 | C13U A16U | 0.13
86 | G30U U38G | 0.03
87 | A25C C42U | 0.41
88 | C10A A12U | 0.04
89 | G22U A39U | 1
90 | C46U | 1.03
91 | U38G G44C | 0.06
92 | A11U U28G | 0.12
93 | G5U G36C | 0.04
94 | C23A C42U | 0.52
95 | G19C C46A | 0.52
96 | C10A G22U | 0.07

Row | Variant | self-cleavage
97 | U20C U43G | 0.01
98 | U20C C31A | 0.27
99 | A26G G27C | 1.15
100 | A25U G40U | 0.14
101 | A4U G30A | 0.42
102 | C8U C37A | 0.14
103 | C13U G36A | 0.63
104 | A12G A14C | 0.04
105 | C10A A14G | 0.06
106 | A26C C42G | 0.04
107 | A11U G27C | 0.14
108 | A26C C37A | 0.05
109 | A11G U32A | 0.02
110 | C15G A39U | 0.04
111 | C3U C8G | 0.15
112 | G21A U32A | 0.08
113 | G21U U32A | 0.12
114 | G7C C45A | 0.1
115 | C8G G29U | 0.11
116 | U20G G33U | 0.08
117 | C13A U43C | 0.08
118 | C23A C37G | 0.02
119 | C3U G7C | 0.17
120 | G44A C45A | 0.07

Row | Variant | self-cleavage
121 | A4G C8U | 0.24
122 | A4G A26C | 0.63
123 | G7C A26U | 0.15
124 | C23A A41G | 0.43
125 | G5U U43C | 0.06
126 | A4U U28C | 0.32
127 | C3G U20C | 0.41
128 | G36U C37A | 0.05
129 | G36U C42G | 0.03
130 | G5C A12C | 0.04
131 | G1U G35U | 0.17
132 | A24U G30C | 0.62
133 | G29C G35C | 0.15
134 | G2A U28C | 0.64
135 | C3G G44C | 0.93
136 | C18G A24U | 0.76
137 | A11U A24G | 0.15
138 | A26G U34G | 0.03
139 | U20A G44C | 0.16
140 | U9G A11C | 0.02
141 | G36A U43A | 0.07
142 | G5U G21A | 0.28
143 | G7C G35U | 0.18
144 | G21C U32G | 0.23

Row | Variant | self-cleavage
145 | A16C A24U | 0.11
146 | A4C G7A | 0.87
147 | C42U C45U | 0.26
148 | A4U C18U | 0.11
149 | C23A C37A | 0.06
150 | G5U U32G | 0.09
151 | A12U C45A | 0.38
152 | G1U A26C | 0.32
153 | C18U G19U | 1.14
154 | G29C G40A | 0.07
155 | A4G | 0.5
156 | A16C U20G | 0.08
157 | G27U C45A | 0.92
158 | G35C G40U | 0.09
159 | A11G A24C | 0.03
160 | C3G A25U | 0.47
161 | U20G A24C | 0.28
162 | G22C U34G | 0.17
163 | A14U U43C | 0.07
164 | G22C G33A | 0.07
165 | G2C G29A | 0.1
166 | U34C C46G | 0.1
167 | A25U C31A | 0.13
